Article PMC11655901, “Mass balance, metabolic disposition, and pharmacokinetics of a single IV dose of [14C]CA102N in HT-29 xenograft athymic nude mice” (Frontiers in Pharmacology, 2024)

What was measured:
[1] = In vivo metabolite profiling (HPLC-MS with radio flow-through detector) of plasma, urine, feces, liver, tumor; conditions: for free Nim or H-Nim in the biological samples evaluated: after [14C]CA102N 200 mg/kg IV
Procedure: Samples were collected on days 0 through 10. […] The weights of all samples (except blood and plasma) were recorded and then stored at −70°C for later analysis.
Fecal and tissue homogenates were maintained at approximately −70°C for MET-ID analysis. The metabolite profiling in the biological samples from mice dosed with [14C]CA102N was performed by HPLC-tandem mass spectrometry coupled with a radio flow-through detector (RFD). The HPLC-MS/radio flow-through detector (RFD) consisted of a Shimadzu NexeraTM (Shimadzu, disseminated Japan) ultra-high pressure liquid chromatography system with two LC-30AD pumps, a SIL30AC autosampler, and a CTO-30A column oven; A Sciex TripleTOF 6600TM (Sciex, Framingham, MA) mass spectrometer; and a β-RAM Model 3 RFD. The mass spectrometer was controlled by Analyst TF 1.7TM (Sciex, Framingham, MA), and the RFD was controlled by Laura Lite 5TM (LabLogic Systems, Brandon, FL) software. The HPLC eluent was split between the RFD and mass spectrometer with a ratio of 3 to 1.
[14C]CA102N and its metabolites were separated using reverse-phase and hydrophilic interaction chromatography. Two HPLC methods were used to separate the metabolites and the parent molecule CA102N, using RFD and mass spectrometer simultaneously.
Retention times of the metabolites were determined from the radio-chromatograms. Mass spectra (MS and MS/MS) of metabolite standards (H-Nim, H-Nim Saccharide, H-Nim Disaccharide) were acquired and major fragment patterns were proposed. […] For other unknown metabolites, molecular ions were searched on LC-MS chromatograms at the same retention times as those found on an HPLC radio-chromatogram. The product/ion spectra were acquired for the corresponding molecular ions. Putative metabolite structures were proposed based on the analysis of their mass fragment patterns.

[2] = PK of the parent molecule H-Nim in mice (LCMS of serum); format: in vivo, female BALB/c athymic (nu+/nu+) mice; conditions: 4.5 mg/kg IV
Procedure: Female BALB/c athymic (nu+/nu+) mice (n = 5) were used in the study. Mice were treated with a single bolus injection of H-Nim via the tail vein at 4.5 mg/kg. The blood samples were collected at 5, 10, 30, 60, and 120 min after treatment. Mice were anesthetized and decapitated to obtain the blood samples. Serum supernatant was collected and stored at −80 until analysis.
PK samples were analyzed by LCMS analysis. The retention time of H-Nim was approximately 25.4 min on the extracted ion chromatogram (XIC) and the protonated molecule of H-Nim was at m/z 279.

[3] = mouse, in vivo
Procedure: Female BALB/c athymic (nu+/nu+) mice (n = 48) were generated by Taconic (Germantown, NY). Mice (18–22 g) were acclimated for at least 3 days before subcutaneous implantation of 1 × 10^7 HT-29 colorectal carcinoma (ATCC number HTB38) cells in 100 μL 50:50 matrigel: PBS. Tumors were allowed to grow to 200–500 mm^3 sizes before initiating the study. Each animal was assigned a permanent identification number, and identified with a tail mark before being placed on the study. Food and water were provided ad libitum. Animal rooms were controlled to maintain a temperature of 68°F–79°F, and 20%–70% relative humidity, with a 12 h light/12 h dark cycle. Observations were recorded for all animals pre-dose and at least once daily post-dose. Mice were randomized into 3 groups and housed (n = 3 per cage) in metabolism cages (Group 1, n = 9) or shoebox cages (Group 2, n = 29 and Group 3, n = 10). Each mouse received a single bolus injection of CA102N via the tail vein. Urine, feces, cage residue, blood/plasma, tissue samples, and carcasses were collected from different groups for Mass Balance (MB), Metabolite Identification (MET-ID), Pharmacokinetics (PK), and Quantitative Whole-Body Autoradiography (QWBA) studies.
Samples were collected on days 0 through 10. […] The weights of all samples (except blood and plasma) were recorded and then stored at −70°C for later analysis. […]
Radioactivity in diluted formulations, plasma, and urine, was quantitated by mixing with a liquid scintillator, Ultima Gold scintillation cocktail (5 mL, PerkinElmer). Samples were analyzed by LSC for total radioactivity content. […] The resulting 14CO2 liberated during combustion was trapped in CarboSorb® and Perma-Fluor® scintillation cocktail was added automatically to the samples before total radioactivity measurement by LSC.
All LSC analyses were performed using a liquid scintillation analyzer (Perkin Elmer Model 2800TR or Model 2900TR). […] Data were corrected to the background by subtracting the dpm value measured from the analysis of blank samples (cocktail only).

HT-29 xenograft = system: HT-29 xenograft; set-up: method as in Lin et al., 2017; conditions: 200 or 400 mg/kg weekly (QW) or three times a week (TIW); ref Lin et al., 2017; cited from earlier work
[4] = mouse, in vivo; remark: listed apart in the source
Procedure: Female BALB/c athymic (nu+/nu+) mice (n = 48) were generated by Taconic (Germantown, NY). Mice (18–22 g) were acclimated for at least 3 days before subcutaneous implantation of 1 × 10^7 HT-29 colorectal carcinoma (ATCC number HTB38) cells in 100 μL 50:50 matrigel: PBS. Tumors were allowed to grow to 200–500 mm^3 sizes before initiating the study. Each animal was assigned a permanent identification number, and identified with a tail mark before being placed on the study. Food and water were provided ad libitum. Animal rooms were controlled to maintain a temperature of 68°F–79°F, and 20%–70% relative humidity, with a 12 h light/12 h dark cycle. Observations were recorded for all animals pre-dose and at least once daily post-dose. Mice were randomized into 3 groups and housed (n = 3 per cage) in metabolism cages (Group 1, n = 9) or shoebox cages (Group 2, n = 29 and Group 3, n = 10). […] Urine, feces, cage residue, blood/plasma, tissue samples, and carcasses were collected from different groups for Mass Balance (MB), Metabolite Identification (MET-ID), Pharmacokinetics (PK), and Quantitative Whole-Body Autoradiography (QWBA) studies.
Samples were collected on days 0 through 10. […] Blood samples were collected via cardiac puncture (Group 2), into EDTA-containing tubes at 0 (pre-dose), 0.5, 2, 8, 24, 48, 72, 120,168, 240, and 336 h after the dose, and plasma samples were harvested on wet ice for PK analysis. […] The weights of all samples (except blood and plasma) were recorded and then stored at −70°C for later analysis.
Radioactivity in diluted formulations, plasma, and urine, was quantitated by mixing with a liquid scintillator, Ultima Gold scintillation cocktail (5 mL, PerkinElmer). Samples were analyzed by LSC for total radioactivity content.
Nominal times were used for pharmacokinetic calculations. Phoenix® WinNonlin®, (version 6.3, Pharsight Corporation, Mountain View, CA, United States) noncompartmental pharmacokinetic analysis was used to determine PK parameters [Maximal concentration (Cmax), Time of maximal concentration (Tmax), Terminal half-life (t1/2), area under the curve to infinity observed (AUCinf obs [µg equiv·h/g]), and area under the curve all observed points (AUCall [µg equiv·h/g])]. The acceptance criteria for the terminal half-life (t1/2) estimation used regression of at least three time points. […] Plasma concentrations are expressed as µg equivalents (equiv)/g (assume 1 mL = 1 g).

[5] = in vivo; cited from earlier work
[6] = Quantitative Whole-Body Autoradiography (QWBA) tissue distribution of total radioactivity; format: in vivo, female BALB/c athymic (nu+/nu+) HT-29 xenograft mice
Procedure: Food and water were provided ad libitum.
Samples were collected on days 0 through 10.
The pinna, limbs, and tail were removed from each frozen carcass (Group 3) and the remaining carcass was embedded in an aqueous suspension of approximately 1% (w/v) carboxymethylcellulose and frozen into a block. The blocks were stored at approximately −20°C before sectioning. Each blocked carcass was mounted on a microtome stage (Leica CM3600 Cryomacrocut and/or a Vibratome 9800, Leica Corp., Nussloch, Germany) and maintained at approximately −20°C. Sections were collected and allowed to dry by sublimation in the cryomicrotome at −20°C for at least 48 h. A set of sections for each mouse was mounted on a cardboard backing, covered with a thin plastic wrap, and exposed along with calibration standards of [14C]-glucose mixed with blood at 10 different concentrations to a [14C]-sensitive phosphor imaging plate (Fuji Biomedical, Stamford, CT). The imaging plates and sections were placed in light-tight exposure cassettes, for a 4-day (96 h) exposure at room temperature. The imaging plates were scanned using the GE Healthcare Typhoon FLA 9500 image acquisition system (GE/Molecular Dynamics, Sunnyvale, CA, United States). Quantification was performed by image dosimetry using MCID image analysis software (Version 7.0, Interfocus Imaging Ltd., Linton, Cambridge, United Kingdom). A standard curve was constructed from the integrated response (MDC/mm2) and the nominal concentrations of the [14C]-calibration standards. The concentrations of radioactivity were expressed as the µg equivalents of CA102N per gram sample (µg equiv/g).
The following calculations were used to determine the µg equivalents/mL, or/g and % percent of dose in the tissue: µg equivalents/mL=µCi/mL/Specific Activity DosedµCi/mL µg equivalents/g=DPM of the sample×1/MassTissueg/Specific Activity of the radiolabeled moleculeDPM/g Percent of dose in tissue=µg eq in tissue×100/Specific Activity DosedμCi/μg
Autoradioluminographic image data were calibrated using response curves that were generated using a weighted, 1st-degree, polynomial, linear equation (1/MDC/mm^2). A numerical estimate of the goodness of fit was given by the relative error, where the absolute value for the relative error of each calibration standard must have been ≤0.250 to be accepted.
The LLOQ and ULOQ were set using calibration standard concentration values of 0.0003 and 20.973 μCi/g, respectively, which were widely proven values ([Kolbe and Dietzel, 2000]) that were verified during the QWBA system validation ([Solon and Lee, 2002]).

Which “free Nim or H-Nim in the biological samples evaluated” value [1] does the source give for CS(=O)(=O)Nc1ccc(N)cc1Oc1ccccc1 [H-Nim] here?
Its value is “No free Nim or H-Nim are determined”.

And the half-life [2]?
Its half-life is under 5 min.

And the “serum concentration at any time point greater than 5 min” value ([2]; detection limit 0.1 μg/mL)?
Its value is “not detectable”.

What about the serum concentration ([2]; 5 min) of the same compound?
Its serum concentration is 0.142 µg/mL.

For CC(=O)NC1C(O)OC(CO)C(O)C1OC1OC(C(=O)Nc2ccc(NS(C)(=O)=O)c(Oc3ccccc3)c2)C(O)C(O)C1O (stereo not drawn) [M1], which “excretion by component, Feces, percent of dose” value ([1]; Group 1, 200 mg/kg IV) is on record?
Its value is 13.20%.

And the “excretion by component, Total, percent of dose” value ([1]; Group 1, 200 mg/kg IV)?
The value was 13.2%.

And the “metabolite in fecal extracts” value ([1]; pooled 0 to 120 h)?
The value was “primary metabolite”.

What does the source list for “N-(4-Amino-2-phenoxyphenyl) methanesulfonamide-graft-poly (β-D-(1, 3) glucuronic acid-β-D-(1, 4)-N-acetylglucosamine) conjugate [CA102N]”?
cage rinses, wash, and wipe combined, percent of dose [3]: 20%; radioactivity elimination through urine, average percent of dose (abstract) [3]: 77%; total dose eliminated within the first 24 h [3]: Around 60%; tumor burden compared to vehicle-treated controls (HT-29 xenograft): significant reduction in tumor burden; systemic plasma clearance (CL) [4]: 0.012 L/h/kg; volume of distribution at steady state (Vss) [4]: 0.1 L/kg; AUC 0-inf_obs ([4]; iv, 200 mg/kg): 18332.4 μg equiv/ml*h; AUC 0-t ([4]; iv, 200 mg/kg): 18329.2 μg equiv/ml*h; AUC 0-t/0-inf_obs ([4]; iv, 200 mg/kg): 0.99; AUClast ([4]; iv, 200 mg/kg): 18,332.4 μg equiv/ml*h; AUMC 0-inf_obs ([4]; iv, 200 mg/kg): 161062.0 μg equiv/ml*h^2; C0 ([4]; iv, 200 mg/kg): 1985.6 μg equiv/ml; Cl_obs ([4]; iv, 200 mg/kg): 0.01 (mg)/(μg equiv/ml)/h; Clast_obs/Cmax ([4]; iv, 200 mg/kg): 5.5E-05; Lambda_z ([4]; iv, 200 mg/kg): 0.03 h⁻¹; MRT 0-inf_obs ([4]; iv, 200 mg/kg): 8.7 h; Vss_obs ([4]; iv, 200 mg/kg): 0.09 (mg)/(μg/mL); Vz_obs ([4]; iv, 200 mg/kg): 0.3 (mg)/(μg equiv/ml); mean plasma radioactivity ([4]; iv, 200 mg/kg): 1.073 µg equivalents/mL; hepatotoxicity [5]: absence of hepatotoxicity; lowest relative tissue concentrations: white adipose, brain, spinal cord, bone tissue, eye lens, mammary gland region, skeletal muscle ([6]; 200 mg/kg IV): < 60 μg equiv/g; half-life of release of CA102N and its metabolites from tumor sites ([6]; mouse, in vivo): 74.2 h; tissue-to-blood ratio, Blood (cardiac) ([6]; mouse, in vivo, iv, 200 mg/kg): 1.00; total radioactivity, adrenal Gland ([6]; mouse, in vivo, iv, 200 mg/kg): 429.979 μg equiv/g; total radioactivity, thyroid ([6]; mouse, in vivo, iv, 200 mg/kg): 469.62 μg equiv/g

For CC(=O)NC1C(O)OC(CO)C(O)C1OC1OC(C(=O)Nc2ccc(NS(C)(=O)=O)c(Oc3ccccc3)c2)C(OC2OC(CO)C(O)C(OC3OC(C(=O)O)C(O)C(O)C3O)C2NC(C)=O)C(O)C1O (stereo not drawn) [M1037], which “metabolite in liver and tumor extracts” value ([1]; 240 h post-dose) is on record?
The value was “dominant metabolite”.

What about the “excretion by component, Liver + Tumor, percent of dose” value ([1]; Group 1, 200 mg/kg IV) of the same compound?
Its value is 4.40%.

What about the “excretion by component, Total, percent of dose” value ([1]; Group 1, 200 mg/kg IV) of the same compound?
Its value is 4.4%.

For CS(=O)(=O)Nc1ccc([N+](=O)[O-])cc1Oc1ccccc1 [Nimesulide, reference compound], which “free Nim or H-Nim in the biological samples evaluated” value [1] is on record?
Its value is “No free Nim or H-Nim are determined”.
